From the nanobody polyreactivity screen of Harvey et al. (2022)

Experiment: yeast display, Sf9 membrane polyspecificity reagent, FACS + sequencing; frameworks hold sequencing errors
In short: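 In a synthetic yeast display library (Saccharomyces cerevisiae BJ5465), nanobody expression was induced with galactose for 36–48 hours. FACS gates were set low and high (top ~1%) using anti-HA fluorescence for expression and streptavidin fluorescence for binding of the Sf9 membrane reagent. Each polyreactivity label is drawn from the gate of origin.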

Sequence	polyreactivity (PSR sort gate)
QVQLVESGGGLVQAGGSLRLSCAASGLIFQYYAMGWYRQAPGKERELVAAISGSGVRSYYADSVKGRFTTSRDNAKNTVYLQMNSLKPEDTAVYYCNTLRQDIIRGDYWGQGTHVTVSS	high polyreactivity
QVQLVESGGGLVQAGGSLRLSCAASGLIFQYYAMGWYRQAPGKERELVASISGSGSSTYYADSVKGRFTISRDNEKNTVYLQMYSLKPEDTAVYYCAAGWGRGWYDYWGQGTQVTVSS	high polyreactivity
QVQLVESGGGLVQAGGSLRLSCAASGLIFRPYAMGGYRQAPGKARELVAAITSGGSTDYADSLKGRFTISRDNAKNTVYLQMNSLNPEDTAVFYCNADFYPHDGYPWQGDYDYWGQGTQVTVSS	low polyreactivity
QVQLVESGGGLVQAGGSLRLSCAASGLIFRRYAMGWYRQAPGKERELVAAINLSGGSTYYADSVKGRFTISRDNAKNTVYLQMNSLKPEDTAVYYCNAVSVYSLPRVGGRYDYWGQGTQVTVSS	high polyreactivity
QVQLVESGGGLVQAGGSLRLSCAASGLIFRRYTMGWYGQGPGKERELVAAITSSGGNTYYADSVKGRFTISRDNAKNTVYLQMNSLKPEDTAVYYCNNPGTHNYYYWGQGTQVTVSS	high polyreactivity
QVQLVESGGGLVQAGGSLRLSCAASGLIFSAYDMGWYRQAPGKERELVASITSGGSTYYADSVKGRFTISRDNAKNTVYLQMNSLKPEDTAVYYCNADGGWYPYRWRYIEGEYWGQGTQVTVSS	low polyreactivity
QVQLVESGGGLVQAGGSLRLSCAASGLIFSDNAMGWYRQARGKEREFVASISDSGTTTYYADSVKGRFTISRDNAKNTVYLQMNSLKPEDTAVYDCNARPGQSGARFGYWGQGTQVTVSS	high polyreactivity
QVQLVESGGGLVQAGGSLRLSCAASGLIFSFYAMGWYRKAPGKERELVATISNTDSTNYADSVKGRFTISRDNAKNTVYLQMNRLKPEDTAVYYCAADVWDGRYLYTGVYDYWGQGTQVTVSS	low polyreactivity
QVQLVESGGGLVQAGGSLRLSCAASGLIFSKNVMGRYRQAPGKERELVAAISQRGGSTYYADSVKGRFTISRDNAKNTVYLQMNSLKPEDTAVYYCAADNTVSHEDYWGQGTQVTVSS	high polyreactivity
QVQLVESGGGLVQAGGSLRLSCAASGLIFSRNAMGRYRQAPGKERELVAAITTGGSTYYADSVKGRFTISRDNAKNTVYLQMNSLKPEDTAVYYCAAAPGYIYEYWGQGTQVTVSS	low polyreactivity
QVQLVESGGGLVQAGGSLRLSCAASGLIFSRYAMGWYRQAPGKERELVAAITYRTVRTYYADSVKGRFTISRDNAKNTVYLQMNSLKPEDTAVYYCAADSARQRDYWGQGTQVTVSS	high polyreactivity
QVQLVESGGGLVQAGGSLRLSCAASGLIFSSNAMGWYRQAPGKERELVAAISSRGGRTYYADSVKGRFTISRDNAKNTVYLQMNSLKPEDTAVYYCAKYFTEVSRHTYDYWGQVTQVTVSS	high polyreactivity
QVQLVESGGGLVQAGGSLRLSCAASGLIFSSNVMGWYRQAPGKERQLVAAIRQRGGSTRYADSVKGRFTISRDNAKNTVYLQMNSLKPEDTEVYYCAADTYYSHSWDSYDYWGQGTQVTVSS	low polyreactivity
QVQLVESGGGLVQAGGSLRLSCAASGLIFSTYAMGWYRQAPGKERELVASISSSGGSTYYADSVKGRFTISRDNAKNTVYLQMNSLKPEDTAVYYCAAVTKRYQPTYYITYGYWGQGTQVTVSS	high polyreactivity
QVQLVESGGGLVQAGGSLRLSCAASGLIFSYSALAWYRQAPGKERELVGSMSTSGGNTNYADSVKGRFTISRDNAKNTVYVQMNSVKPVDTAVYYCAAGIGKQYHTGYPTAGRKYGYWGQGTQVTVSS	high polyreactivity
QVQLVESGGGLVQAGGSLRLSCAASGLIFSYYAMGWYRQAPGKERELVAAITGSGGTTYYADSVKGRFTISRDNAKNTVYLQMNSLKPEDTAVYYCATPPPEVWQRWYREYDYWGQGTQVTVSS	low polyreactivity
QVQLVESGGGLVQAGGSLRLSCAASGLIFSYYAMGWYRQAPGKERELVGAITGSGGSTYYADSVKGRFTISRDNAKNTVYLQMNSLKPEDTAVYYCAAGRYAYTLSRKYDYWGQGTQVTVSS	high polyreactivity
QVQLVESGGGLVQAGGSLRLSCAASGLIFSYYPMGWYRQAPGKERELVAAITGSGGTTYYADSVKGRFTISRDNAKNTVYLQMNSLKPEDTAVYYCATSPPEVWQRWYREYDYWGQVTQVTVSS	low polyreactivity
QVQLVESGGGLVQAGGSLRLSCAASGLIFSYYVMGWYRPAPGKERELVAAINRSGGSTYYADSVKGRFTISRDNAKNTVYLQMNSLKPEDTAVYYCAAEKLGTNFEYWGQGTQVTVSS	high polyreactivity
QVQLVESGGGLVQAGGSLRLSCAASGLIFTDYAMGWYRQAPGKDRELVATITARGGDTYYADSVKGRFTISRDNAKNTVYLQMNSLKPEDTAVYYCAAEYLSGGEAGMYYWGQGTQVTVSS	low polyreactivity

Sequence	polyreactivity (PSR sort gate)
QVQLVESGGGLVQAGGSLRLSCAASGLIFTRYTMGWYRQAPGKERELVAGISWSGGRTYYADSVKGRFTISRDKAKYTVYLQMNSLKPEDTAVYYCAADSYYSRAYDYWGQGTQVTVSS	high polyreactivity
QVQLVESGGGLVQAGGSLRLSCAASGLIFTSYAMGWYRQATGKERELVAAISGSAASTYYADSVKGRFTISRDNAKNTVYLQMNSLKPEDTAVYYCAADYQGYTPSDGRYYWGQGTQVTVSS	low polyreactivity
QVQLVESGGGLVQAGGSLRLSCAASGLIFTVNTMGWYRQAPGKERELVATIHTIGDGTNYADSVKGRFTISRDNAKNTVYLQMNSLKPEDTAVYYCAAYAGSVRPGDLYGYDYWGQGTQVTVSS	low polyreactivity
QVQLVESGGGLVQAGGSLRLSCAASGLIFTYNAMGWYRQAPGKERELVASISWGGGSTYYADSVKGRFTISRDNAKHTVYLQMHSLKPEDTAVYYCNAKFKTVHTYGDTIFDRYDYWGQGTQVTVSS	low polyreactivity
QVQLVESGGGLVQAGGSLRLSCAASGLIFVPYAMGWYIQAPGKERELVAAISRSGGSTYYADSVKGRFTISRDNAKNTVYLQMNSLKPEDTAVYYFATLNYYGEVEYWGQGTQVTVSS	high polyreactivity
QVQLVESGGGLVQAGGSLRLSCAASGLIFVRYAMGWYRQAPGKERELVADISTSDGSTRYADSVKGRFTISRDNEKNTVYLQMNSLKPEDTAVYYCAGGSEYYSYGGVRFSFYYWGQGTQVTVSS	low polyreactivity
QVQLVESGGGLVQAGGSLRLSCAASGLIFVSYAMGWYRQEPGKERELVASITDSDSSTYYADSVKGRFTISRDNAKNTVYLQMNSLKPEDTAVYSCATGGRTEIWYPTLDYWGQGTQVTVSS	low polyreactivity
QVQLVESGGGLVQAGGSLRLSCAASGLIFVYNDMGWYRQAPGKERELVAGITGTGGNTYYADSVKGRFTISRDNAKNTVYLQMNSLKPEDTAVYYCAAQRSVFKSFRTTYVRYDYWGQGTQVTVSS	high polyreactivity
QVQLVESGGGLVQAGGSLRLSCAASGLIFVYYTMGWYRQAPGKERELVAAIRSGGGTNYADSVKGRFTISRDNAKNTVYFQMNSLKPEDTAVYYCAASIRSYAYGGRKYNYWGQGSQVTVSS	high polyreactivity
QVQLVESGGGLVQAGGSLRLSCAASGLIFWAYAMGWYRQAPGKERELVAAISWSGARTYYADSVKGRFTISRDNAKNTVYLQMNSLKPEDTAVYYCAAGVSSSSSGYEGDYWGQGTQVTVSS	high polyreactivity
QVQLVESGGGLVQAGGSLRLSCAASGLIFWAYAMGWYRQAPGTDRELVAAINWRGGSTYYADSVKGRFTISRDTAKNTVYLQMNSLKPEDTAVYYCAADSYYDEYDYWGQGTQVTVSS	low polyreactivity
QVQLVESGGGLVQAGGSLRLSCAASGLIFWINAMGWYRQAPWKERDLVAAITNSGGDTYYADSVKGRFTISRDNAKKTVYLQMNSLKTEDTAVYYCNADGTKWVRETYDYWGQGTQVTVSS	low polyreactivity
QVQLVESGGGLVQAGGSLRLSCAASGLIFWRYDMGWYRQAPGKERELVAVITSGGNTYYADSVKGRFTISRDNAKNTVYLQMNSLKPEDTAVYYCNADTWRDDYDYWGQGTQVTVSS	low polyreactivity
QVQLVESGGGLVQAGGSLRLSCAASGLIFYAYAMGWYRQAPGKEREFVAAINNSGGRTYYADSVKGRFTISRDNAKNTVYLQMYSLKPEDTAVYYCAVYSYYRRTYRREMDYWGQGTQVTVSS	high polyreactivity
QVQLVESGGGLVQAGGSLRLSCAASGLIFYDNLGWYRQAPGKERELVAAISSSGGSTSYADSVKGRFTISRDNAKNTVYLQMNSLKPEDTAVYYCAADSYPAYLGFVGFDYWGQGTQVTVSS	low polyreactivity
QVQLVESGGGLVQAGGSLRLSCAASGLIFYDNMGWYRQAPGKERELVAAISSSGGSRTYAYSVKGRFTISRDNAKNTVYFQMNSLKPEDTEVYYCALDKHYYGRYGVTYDYDYWGQGTQVTVSS	low polyreactivity
QVQLVESGGGLVQAGGSLRLSCAASGLIFYDNMGWYRQAPGKERELVAAISSSGGSTSYADSVKGRFTISRDNAKNTVYLQMNSLKPADTAVYYCAADSYPAYLGFVGFDYWGQGTQVTVSS	low polyreactivity
QVQLVESGGGLVQAGGSLRLSCAASGLIFYEHAMGWYRQAPGKERELVAAINYDGDSTYYADSVKGRFTISRDNAKITVYLQMNSLKPEDTAVYYCAADGGWVLFWMDYCGQGTQVTVSS	low polyreactivity
QVQLVESGGGLVQAGGSLRLSCAASGLIFYFNAIGWYRQAPGKERELVASITRTGSTNYADSVKGRFTISRDNAKNTVYLHMNRLKPEYTAVYYCSAPWTQILDYWGQGTQVTVSS	low polyreactivity
QVQLVESGGGLVQAGGSLRLSCAASGLIFYHNARGWYRQAPGKERELVAAITASGGSTYYADSVKGRFTISRDNAKNTVYFQMNSLKPEDTAVYYCAADGPLDSDLDYWGQGTQVTVSS	low polyreactivity
